The numbers were not newly measured in paper PMC7511354, which cites them from elsewhere.

For this data set, the target named is CYP2C9 (Homo sapiens) (UniProt P11712).
UniProt P11712, sequence (P11712 whole entry): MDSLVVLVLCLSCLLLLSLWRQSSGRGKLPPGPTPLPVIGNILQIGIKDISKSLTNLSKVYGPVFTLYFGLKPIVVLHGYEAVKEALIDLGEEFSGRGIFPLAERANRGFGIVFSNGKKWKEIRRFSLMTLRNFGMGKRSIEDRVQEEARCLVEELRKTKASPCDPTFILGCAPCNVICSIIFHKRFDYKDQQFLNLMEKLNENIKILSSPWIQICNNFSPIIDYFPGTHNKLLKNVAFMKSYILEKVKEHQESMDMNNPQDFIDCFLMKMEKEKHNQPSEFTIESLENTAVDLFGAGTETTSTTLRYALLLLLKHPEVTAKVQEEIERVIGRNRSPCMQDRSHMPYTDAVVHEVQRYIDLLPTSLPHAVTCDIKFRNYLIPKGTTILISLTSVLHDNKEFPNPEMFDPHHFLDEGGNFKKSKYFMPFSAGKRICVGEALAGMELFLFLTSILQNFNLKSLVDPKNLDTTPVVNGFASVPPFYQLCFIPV

Broadly, the Kd is the equilibrium constant for the complex coming apart. As to cytochrome b5 (from UniProt P00167), the Kd was 794 nM.
